The values that follow come from US20250197513A1 (University of Texas, published 2025).

In data set [1] the target is T1, recombinant OSMR protein (Sino Biologicals, 11226-H08H), extracellular domain of OSMR (UniProt Q99650 28-740).
T1 construct: extracellular domain; also called OSMR antigen
T1 sequence (looked up): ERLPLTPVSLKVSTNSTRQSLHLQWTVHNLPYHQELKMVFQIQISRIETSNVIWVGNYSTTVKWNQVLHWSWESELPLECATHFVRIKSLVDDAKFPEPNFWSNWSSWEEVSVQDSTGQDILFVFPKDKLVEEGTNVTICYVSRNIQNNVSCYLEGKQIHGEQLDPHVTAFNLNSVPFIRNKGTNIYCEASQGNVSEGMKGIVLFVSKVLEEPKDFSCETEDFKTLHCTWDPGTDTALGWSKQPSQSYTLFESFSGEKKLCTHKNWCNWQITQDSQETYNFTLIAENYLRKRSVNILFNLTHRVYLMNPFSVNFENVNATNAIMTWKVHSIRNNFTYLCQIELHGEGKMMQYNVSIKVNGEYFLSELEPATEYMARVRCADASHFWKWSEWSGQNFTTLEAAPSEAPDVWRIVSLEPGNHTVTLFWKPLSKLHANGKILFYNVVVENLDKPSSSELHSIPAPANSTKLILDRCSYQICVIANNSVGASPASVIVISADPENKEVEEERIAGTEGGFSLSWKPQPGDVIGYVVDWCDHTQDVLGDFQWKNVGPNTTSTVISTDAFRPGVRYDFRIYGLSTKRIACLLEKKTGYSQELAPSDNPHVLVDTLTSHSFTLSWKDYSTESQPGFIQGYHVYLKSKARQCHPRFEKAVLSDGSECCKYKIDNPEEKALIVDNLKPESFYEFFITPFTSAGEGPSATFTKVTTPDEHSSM
Put plainly: screening of full-length IgG1 clones on recombinant OSMR extracellular domain.

Data set [2] deals with T2, cell surface human OSMR protein (as used in the ELISA for EC50) (human, UniProt Q99650 28-739, limits assumed).
T2 sequence (looked up): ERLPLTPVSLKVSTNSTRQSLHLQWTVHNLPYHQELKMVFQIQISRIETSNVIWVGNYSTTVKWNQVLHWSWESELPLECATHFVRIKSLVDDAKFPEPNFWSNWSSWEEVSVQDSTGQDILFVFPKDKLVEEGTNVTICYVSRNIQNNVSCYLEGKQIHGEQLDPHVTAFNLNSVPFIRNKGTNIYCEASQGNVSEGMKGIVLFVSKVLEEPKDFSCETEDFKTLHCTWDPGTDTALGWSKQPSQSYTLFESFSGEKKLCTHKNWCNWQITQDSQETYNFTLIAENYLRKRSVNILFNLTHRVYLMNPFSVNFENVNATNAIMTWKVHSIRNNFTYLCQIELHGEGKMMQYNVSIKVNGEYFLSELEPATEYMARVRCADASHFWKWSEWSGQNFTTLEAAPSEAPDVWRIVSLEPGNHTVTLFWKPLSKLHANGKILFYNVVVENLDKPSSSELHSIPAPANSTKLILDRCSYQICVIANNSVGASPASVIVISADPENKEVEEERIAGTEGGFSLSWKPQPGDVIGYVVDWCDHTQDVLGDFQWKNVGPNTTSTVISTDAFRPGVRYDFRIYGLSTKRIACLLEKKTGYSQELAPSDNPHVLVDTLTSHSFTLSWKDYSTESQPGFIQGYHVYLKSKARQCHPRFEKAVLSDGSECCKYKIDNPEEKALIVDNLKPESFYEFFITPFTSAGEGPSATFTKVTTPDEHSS
Description: ELISA.

Data set [3] deals with the molecule itself. Put plainly: dimerization assay (cross-linking, immunoprecipitation) after OSM stimulation. As to the method:
Dimerization assay: Dimerization assay was performed as mentioned previously (Bublil et al., 2010; Turk and Chapkin, 2015) with some modifications. […] The […] were incubated with non-permeable cross-linking reagent, 3 mM bis (sulphosuccinimidyl) suberate [BS3 (Pierce)], cross-linking reagent on ice for 30 min and subsequently quenched with 250 mM Glycine. The cells were washed with ice cold PBS and cells were lysed using RIPA buffer as mentioned earlier.

B1: B18 monoclonal antibody (antibody, V domains shown)
VH: not shown
VL: DVVMTQSPLSLPVTPGEPASISCRSSQSLLHSNGYNYLDWYMQKPGQSPQVLIYLGSNRASGVPDRFSGSGSGTDFTLKISRVEAEDVGVYYCMQALQTPHTFGQGTTVDIK
notes: also called B18 mAb; B18 antibody clones
With B1, the binding result in data set [1] is recorded as “binds”; in data set [2] it was “no binding”.

B2: OSMR on human ovarian cancer cells (HEYA8, OVCAR4, A2780) (receptor, UniProt Q99650 28-979, looked up)
chain: ERLPLTPVSLKVSTNSTRQSLHLQWTVHNLPYHQELKMVFQIQISRIETSNVIWVGNYSTTVKWNQVLHWSWESELPLECATHFVRIKSLVDDAKFPEPNFWSNWSSWEEVSVQDSTGQDILFVFPKDKLVEEGTNVTICYVSRNIQNNVSCYLEGKQIHGEQLDPHVTAFNLNSVPFIRNKGTNIYCEASQGNVSEGMKGIVLFVSKVLEEPKDFSCETEDFKTLHCTWDPGTDTALGWSKQPSQSYTLFESFSGEKKLCTHKNWCNWQITQDSQETYNFTLIAENYLRKRSVNILFNLTHRVYLMNPFSVNFENVNATNAIMTWKVHSIRNNFTYLCQIELHGEGKMMQYNVSIKVNGEYFLSELEPATEYMARVRCADASHFWKWSEWSGQNFTTLEAAPSEAPDVWRIVSLEPGNHTVTLFWKPLSKLHANGKILFYNVVVENLDKPSSSELHSIPAPANSTKLILDRCSYQICVIANNSVGASPASVIVISADPENKEVEEERIAGTEGGFSLSWKPQPGDVIGYVVDWCDHTQDVLGDFQWKNVGPNTTSTVISTDAFRPGVRYDFRIYGLSTKRIACLLEKKTGYSQELAPSDNPHVLVDTLTSHSFTLSWKDYSTESQPGFIQGYHVYLKSKARQCHPRFEKAVLSDGSECCKYKIDNPEEKALIVDNLKPESFYEFFITPFTSAGEGPSATFTKVTTPDEHSSMLIHILLPMVFCVLLIMVMCYLKSQWIKETCYPDIPDPYKSSILSLIKFKENPHLIIMNVSDCIPDAIEVVSKPEGTKIQFLGTRKSLTETELTKPNYLYLLPTEKNHSGPGPCICFENLTYNQAASDSGSCGHVPVSPKAPSMLGLMTSPENVLKALEKNYMNSLGEIPAGETSLNYVSQLASPMFGDKDSLPTNPVEAPHCSEYKMQMAVSLRLALPPPTENSSLSSITLLDPGEHYC
notes: whole, on cells; also called Oncostatin M receptor; OMSR receptors
In the case of B2, the binding result in data set [3] is reported as “binds”.

B3: B07 monoclonal antibody (antibody, V domains shown)
VH: QVQLVESGGGVVRPGGSLRLSCAASGFTFDDYGMSWVRQAPGKGLEWVSGINWNGGSTGYADSVKGRFTISRDNAKNSLYLQMNSLRAEDTALYHCARVNYDSSGLRGAFDIWGQGTMVTVSS
VL: NIQMTQSPSSLSASVGDRVTITCQASQYISNSLNWYQQKPGKAPNLLLYDATNLEPGVPSRFSGSGSRTDFTLTISSLQPEDIATYYCQQYHNLPPTFGQGTRLEIK
notes: also called B07 mAb
As for B3, in data set [1], the binding result was “binds”.
